Data as given in patent US20240052063A1, “Binding Proteins 2” (Nucleus Therapeutics Pty. Ltd., priority 2017, published 2024).
“Also recorded” adds a separate entry of the source.

Tests used:
[1] = test system: HDR-proficient DLD1 cells; experiment: Selectivity of combination therapy in HDR-proficient cells; type: cell-based; details: 5 nM olaparib, 10 μM di-scFv, alone or combined
Procedure: Homology-directed repair (HDR) deficient BRCA2-DLD1 cells and PTEN-U251 cells were treated with control, 5 nM olaparib, 10 μM di-scFv, or 10 μM di-scFv+5 nM olaparib. Surviving fraction was determined by colony formation assay.
It was then determined whether the combination of di-scFv and olaparib is simply universally cytotoxic, regardless of DNA repair status. To evaluate this possibility, HDR-proficient DLD1 cells were treated with the above regimen to confirm selectivity of combination therapy to HDR-deficient malignant cells.

[2] = test system: PTEN-deficient U251 human glioma cells; experiment: Phospho-53BP1 foci accumulation (DNA damage), PTEN-deficient cells; type: cell-based
Procedure: A matched pair of PTEN-proficient and deficient U251 human glioma cells were treated with control media or media containing Variant 10, 11, 13, 15, or 16 for twenty-four hours. Cells were then washed, fixed, blocked, and then probed with an anti-phospho-53BP1 antibody overnight. Cells were then washed and incubated with an AlexaFluor555-conjugated secondary antibody. Finally, cells were washed, counterstained with DAPI, and visualized under a fluorescence microscope. Images were saved and evaluated by CellProfiler to determine mean number of phospho-53BP1 foci per cell.
(§1) A matched pair of BRCA2-proficient and deficient DLD1 colon cancer cells and PTEN-proficient and deficient U251 human glioma cells were treated with control media or media containing 10 μM di-scFv variant 13 (SEQ ID NO: 41), 5 nM olaparib, or combination treatment.

[3] = test system: DLD1 colon cancer cells; experiment: Alkaline phosphatase-based survey of nuclear penetration; type: cell-based; details: DLD1 cells treated one hour; FIG. 5
[4] = test system: BRCA2-deficient DLD1 colon cancer cells; experiment: Cell viability by Trypan blue exclusion assay, BRCA2-deficient cells; type: cell-based; details: BRCA2-deficient DLD1, 7 days, FIG. 10
Procedure: (§2) Next, a matched pair of BRCA2-proficient and deficient DLD1 colon cancer cells was treated with control media or media containing Variants 10, 13, 15, or 16. Cell viability was determined 7 days later by Trypan blue exclusion assay and by direct visualization of cell morphology by light microscopy. […] Representative light microscope images shown the changes in morphology in the BRCA2-deficient cancer cells treated with the variants are shown in FIG. 10, Panel A. Quantitative analysis of the cell survival by Trypan blue exclusion assay is shown in FIG. 10, Panel B.

[5] = test system: PTEN-deficient U87 human glioma cells; experiment: Cell viability by Trypan blue exclusion assay and light microscopy; type: cell-based; details: PTEN-deficient U87, 7 days after treatment, FIG. 9
Procedure: Cell viability of PTEN-deficient U87 human glioma cells was also assessed following treatment with control media or media containing Variants 10, 13, 15, or 16. Cell viability was determined 7 days after treatment using Trypan blue exclusion assay and by direct visualization of cell morphology by light microscopy.

[6] = test system: BRCA2-deficient DLD1 colon cancer cells; experiment: Phospho-53BP1 foci accumulation, BRCA2-deficient cells; type: cell-based; details: FIG. 17
Procedure: as §1

[7] = test system: BRCA2-proficient DLD1 colon cancer cells; experiment: Cell viability by Trypan blue exclusion assay, BRCA2-proficient cells; type: cell-based; details: BRCA2-proficient DLD1, 7 days, FIG. 10
Procedure: as §2

[8] = test system: MCF-7 cells; experiment: Nuclear penetration by protein L immunostain of fixed cells; type: cell-based; details: FIG. 12, listed as di-scFv (SEQ ID NO: 41)
Procedure: (§3) DLD-1 and MCF-7 cells were treated with control or di-scFv (SEQ ID NO: 41), and nuclear penetration was evaluated by protein L immunostain of fixed cells.

[9] = test system: DLD-1 cells; experiment: as above; type: cell-based; details: FIG. 11, listed as di-scFv (SEQ ID NO: 41)
Procedure: as §3

[10] = test system: Primary human glioblastoma (GBM) cancer cells; experiment: Percentage of live cells by trypan blue staining; type: cell-based; details: seven primary human GBM tumour explants, FIG. 14; listed as di-scFv (SEQ ID NO: 41)
Procedure: Primary human glioblastoma (GBM) cancer cells extracted from primary human GBM tumours from patients were treated with control or di-scFv (SEQ ID NO: 41), and percentage of live cells was evaluated by trypan blue staining.

[11] = test system: GBM cells extracted from human GBM tumours (intracranial); experiment: Orthotopic mouse model of GBM; type: in vivo
From the text: An orthotopic mouse model of GBM was generated by intracranial injection of GBM cells extracted from human GBM tumours.

[12] = test system: human GBM cancer stem cells (CSCs) grown as tumour spheres; experiment: GBM cancer stem cell tumour spheres: penetration and sphere volume; type: cell-based; details: listed as di-scFv (SEQ ID NO: 41)
Procedure: GBM cancer stem cells extracted from primary human GBM tumours from patients and grown as spheres were treated with control or di-scFv (SEQ ID NO: 41), and the effect of dose and incubation time on reduction of sphere volume was evaluated by confocal micrographs of DX1-rhodamine cellular penetration into GBM cells. Tumour spheres are recognised as a useful tool for pre-clinical studies as they retain tumour heterogeneity and more closely represent the original patient tumour.

B1: Variant 13: cell penetrating anti-DNA di-scFv variant, amino acid sequence SEQ ID NO: 41 (protein)
scFv: DIQMTQSPSSLSASLGDRATITCRASKTVSTSSYSYMHWYQQKPGQPPKLLIKYASYLESGVPSRFSGSGSGTDFTLTISSLQPEDAATYYCQHSREFPWTFGGGTKVEIKRADAAPGGGGSGGGGSGGGGSEVQLVESGGGLVQPGGSLRLSCAASGFTFSNYGMHWVRQAPGKGLEWVSYISSGSSTIYYADSVKGRFTISRDNAKNSLYLQMNSLRAEDTAVYYCARRGLLLDYWGQGTTVTVSSASTKGPSVFPLAPLESSGSDIQMTQSPSSLSASLGDRATITCRASKTVSTSSYSYMHWYQQKPGQPPKLLIKYASYLESGVPSRFSGSGSGTDFTLTISSLQPEDAATYYCQHSREFPWTFGGGTKVEIKRADAAPGGGGSGGGGSGGGGSEVQLVESGGGLVQPGGSLRLSCAASGFTFSNYGMHWVRQAPGKGLEWVSYISSGSSTIYYADSVKGRFTISRDNAKNSLYLQMNSLRAEDTAVYYCARRGLLLDYWGQGTTVTVSS
modifications: Variant 13
cell death [1]: No effect on cell death
percentage of P53BP1-positive cells ([2]; HDR-deficient U251, 24 hour treatment, FIG. 17): increased
mean number of phospho-53BP1 foci per cell ([2]; PTEN-deficient U251, twenty-four hours, FIG. 8): increased the number of foci
mean number of phospho-53BP1 foci per cell ([2]; PTEN-deficient U251, 10 μM di-scFv, 5 nM olaparib, FIG. 17): increased the number of phospho-53BP1 foci
nuclear penetration (histogram of cell counts versus nuclear staining intensity) relative to the yeast prototype [3]: notable right shift and narrowing of distributions relative to the yeast prototype
cell viability (cell killing) [4]: killed by the variants
cell viability relative to control treated cells [5]: caused reductions in cell viability
mean number of phospho-53BP1 foci per cell ([6]; BRCA2-deficient DLD1, 10 μM di-scFv, 5 nM olaparib): increased the number of phospho-53BP1 foci
percentage of P53BP1-positive cells ([6]; HDR-deficient DLD1, 24 hour treatment): increased
cell viability (toxicity) [7]: not toxic
nuclear penetration [8]: successfully penetrated; also recorded: penetrates HDR deficient MCF-7 breast cancer cell nuclei
nuclear penetration [9]: successfully penetrated; also recorded: penetrates HDR deficient DLD-1 colon cancer cell nuclei
cancer cell death (percentage of live cells) [10]: Five of the seven glioblastoma tumour explants treated with di-scFv (SEQ ID NO: 41) showed significant cancer cell death; also recorded: kills primary human glioblastoma cells
incidence of apoptosis in tumours (TUNEL staining) ([11]; FIG. 16B): increased incidence of apoptosis
toxicity or weight loss associated with treatment ([11]; body weight profile, FIG. 16D): No toxicity or weight loss
median survival longer than controls ([11]; controls median 72 days): more than 20%
mean survival ([11]; group of 7 mice, FIG. 16E): 83 days
median survival ([11]; group of 7 mice, FIG. 16E): 87 days
di-scFv in adjacent normal brain cells (protein L immunostaining) ([11]; normal brain, FIG. 16C): not evident
crossing of the blood brain barrier ([11]; suggested by tumour size reduction and TUNEL staining): successfully crossed the blood brain barrier
reduction of glioblastoma tumour size versus control mice ([11]; tail vein injection, brain sections, FIG. 16A): more than 40%
di-scFv in GBM tumour cells (protein L immunostaining) ([11]; tumour tissue, FIG. 16C): detected in the nuclei of GBM tumour cells
cellular penetration into GBM spheres ([12]; confocal micrographs, FIG. 15A): demonstrated cellular penetration in GBM spheres; also recorded: penetrates human glioblastoma spheres
sphere volume ([12]; effect of dose and incubation time, FIG. 15B, C): reduced sphere volume in dose-dependent and time-dependant manner; also recorded: reduces sphere volume in a time-dependent (B) and dose-dependent (C) manner
